# Measurements reported in patent US20250136699A1 (JIANGSU BIOJETAY BIOTECHNOLOGY, published 2025).
# Read-outs that look alike come from different tables or passages of the source.
# T1: musculus FcRn-alpha (mouse, UniProt Q61559 22-297, limits assumed)
# T1 construct: Alpha chain alone; also called mFcRn; mouse FcRn; not shown: His tag and Avi tag
# T1 sequence: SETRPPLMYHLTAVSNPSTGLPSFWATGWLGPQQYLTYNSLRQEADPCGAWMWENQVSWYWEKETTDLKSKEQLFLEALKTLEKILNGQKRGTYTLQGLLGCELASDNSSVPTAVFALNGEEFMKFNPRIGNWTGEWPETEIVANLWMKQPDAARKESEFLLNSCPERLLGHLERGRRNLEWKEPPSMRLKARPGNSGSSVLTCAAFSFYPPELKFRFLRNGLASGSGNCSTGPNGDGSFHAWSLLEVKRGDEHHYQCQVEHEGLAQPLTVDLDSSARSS
# T2: Rattus norvegicus FcRn-alpha (rat, UniProt P13599 23-298)
# T2 construct: Alpha chain alone; also called rFcRn; rat FcRn; not shown: His tag and Avi tag
# T2 sequence: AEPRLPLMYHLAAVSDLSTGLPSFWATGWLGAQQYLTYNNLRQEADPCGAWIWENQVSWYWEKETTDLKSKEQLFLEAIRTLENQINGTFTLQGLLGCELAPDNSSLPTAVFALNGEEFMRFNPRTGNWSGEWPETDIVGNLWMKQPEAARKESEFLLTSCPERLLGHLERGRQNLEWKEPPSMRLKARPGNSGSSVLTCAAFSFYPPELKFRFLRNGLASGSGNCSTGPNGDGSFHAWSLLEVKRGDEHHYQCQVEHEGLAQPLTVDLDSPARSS
# How the values were obtained:
# musculus FcRn-alpha = biological target: T1, musculus FcRn-alpha; experiment: ELISA: mFcRn coated, antibody titrated, goat anti-human IgG Fab-HRP, OD450
# human FCGRT [1] = biological target: T3, human FCGRT (human, UniProt P55899 24-297, biotinylated (Avi tag) in the blocking assays); experiment: blocking ELISA: human IgG coated, biotinylated human FCGRT plus titrated antibody, SA-HRP, OD450; blocked ligand: human IgG
# T3 construct: Alpha chain alone, expressed in Expi293 cells with His and Avi tags; also called FCGRT of human FcRn protein; biotinylated human FCGRT; not shown: His tag and Avi tag
# T3 sequence (P55899 24-297 limits assumed): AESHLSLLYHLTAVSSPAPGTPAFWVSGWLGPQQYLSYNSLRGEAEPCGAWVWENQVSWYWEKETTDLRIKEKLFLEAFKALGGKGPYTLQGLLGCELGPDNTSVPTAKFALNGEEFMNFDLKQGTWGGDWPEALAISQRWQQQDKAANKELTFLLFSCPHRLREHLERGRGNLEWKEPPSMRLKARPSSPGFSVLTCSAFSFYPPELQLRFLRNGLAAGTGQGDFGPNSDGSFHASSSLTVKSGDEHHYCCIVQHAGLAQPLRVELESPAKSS
# [2] = biological target: T4, human FcRn (human FCGRT and B2M) on stably transfected MDCK cells (human, UniProt P55899 24-365; P61769 21-119); experiment: cell-based or functional assay
# human B2M [3] = biological target: T5, human B2M (human, UniProt P61769 21-119, limits assumed); experiment: ELISA: human B2M coated, antibody titrated, OD450
# T5 construct: also called beta-2-microglobulin; not shown: His tag and Avi tag
# [4] = biological target: T6, Cynomolgus monkey FcRn-alpha (cynomolgus monkey, UniProt Q8SPV9 24-297, limits assumed); experiment: ELISA: cynoFcRn coated, antibody titrated, goat anti-human IgG Fab-HRP, OD450
# T6 construct: The printed entry looks like the full-length precursor (signal peptide, transmembrane and cytoplasmic parts); also called cynoFcRn; not shown: His tag and Avi tag
# T6 sequence (Q8SPV9 24-297 limits assumed): as the sequence (P55899 24-297 limits assumed) above, with N39D, E44Q, G99S, S189G, S190N, L217M, S269T counted along it
# human FCGRT [5] = biological target: T3, human FCGRT; experiment: ELISA: human FCGRT coated, antibody titrated, goat anti-human IgG Fab-HRP, OD450
# Method: (§1) Measurement of the binding specificity of anti-FcRn antibodies to FCGRT and B2M by EILSA: Briefly, human FCGRT or B2M was coated on a 96-well plate at 4° C. overnight, after removing the coating solution, a blocking buffer containing 1% BSA was added into the plates followed by incubation at room temperature for 1 hour to block unspecific binding. Plates were then washed with wash buffer, and serial dilutions of anti-FcRn antibodies were added to the wells and incubated at room temperature for 1 hour. […] The wells were washed before adding 100 μL/well of TMB and incubated for 5-10 minutes at 37° C. 2M H₂SO₄ was used to stop the reaction. […] The ELISA results (OD450) were analyzed, and the binding curves were generated by Graphpad PRISM.
# human FCGRT [6] = biological target: T3, human FCGRT; experiment: competition ELISA: human IgG coated, biotinylated human FCGRT plus antibody, SA-HRP
# Method: (§2) After removing the coating solution, the wells were blocked with a blocking buffer containing 1% BSA at room temperature for 1 hour. Plates were then washed with wash buffer. […] After incubation, 100 μL of SA-HRP (1:20,000) was added to each well and incubated for 1 hour at 37° C. The wells were washed before adding 100 μL/well of TMB and incubated for 5-10 minutes at 37° C. 2M H₂SO₄ was used to stop the reaction. […] The ELISA results (OD450) were analyzed, and the binding curves were generated by PRISM.
# human FCGRT [7] = biological target: T3, human FCGRT; experiment: as above; remark: listed apart in the source
# Method: as §2
# [8] = biological target: T7, Human recombinant FCGRT & B2M Heterodimer Protein (hFcRn) (human, UniProt P55899 24-297; P61769 21-119); experiment: ELISA on coated hFcRn, IgG4 antibody titrated
# T7 construct: Bought protein; also called human FcRn
# Method: (§3) hFcRn binding of purified full-length chimeric antibodies: The hFcRn antigen binding ELISA was performed on the purified full-length chimeric antibodies (reformatted as IgG4). Briefly, plates were coated overnight at 4° C. with 1 μg/mL of hFcRn (cat #CT009-H08H) in PBS. After removing the coating solution, the wells were blocked by adding blocking buffer and incubated at room temperature for 1 hour. Plates were then washed 6 times with wash buffer. Serial dilutions of purified antibodies in PBS were added to individual wells followed by incubation at room temperature for 1 hour. Plates were washed 6 times with wash buffer. […] Plates were incubated at 37° C. for 1 hour, washed 6 times with wash buffer, and developed for 5-10 minutes with 50 L/well of TMB substrate, then quenched with 2M H₂SO₄. […] The ELISA results (OD450) were analyzed, and the binding curves were generated by Graphpad PRISM.
# [9] = biological target: T4, human FcRn (human FCGRT and B2M) on …; experiment: cell-based or functional assay; remark: listed apart in the source
# [10] = biological target: T6, Cynomolgus monkey FcRn-alpha; experiment: ELISA on coated cynoFcRn, IgG4 antibody titrated
# Method: as §3
# (§4) Analysis of cross-reactivity to FcRn from different species: To examine whether the anti-FcRn antibodies bind to FcRn from different species, antigen binding ELISA assays were performed as described above except that cynoFcRn, mFcRn, or rFcRn was used in the assay instead of hFcRn.
# human FCGRT [11] = biological target: T3, human FCGRT; experiment: ELISA on coated human FCGRT, IgG4 antibody titrated
# Method: as §1
# human B2M [12] = biological target: T5, human B2M; experiment: ELISA: human B2M coated, antibody titrated, OD450; remark: listed apart in the source
# Method: as §1
# [13] = biological target: T2, Rattus norvegicus FcRn-alpha; experiment: ELISA: rFcRn coated, antibody titrated, goat anti-human IgG Fab-HRP, OD450
# Method: as §3, §4
# [14] = biological target: T7, Human recombinant FCGRT & B2M …; experiment: ELISA, hFcRn coated at 1 ug/mL, IgG4 antibody titrated, anti-human IgG Fab-HRP
# Method: as §3
# human FCGRT [15] = biological target: T3, human FCGRT; experiment: ELISA: human FCGRT coated, antibody titrated, goat anti-human IgG Fab-HRP, OD450; remark: listed apart in the source
# Method: as §1
Molecule,EC50 (read off the curve) (musculus FcRn-alpha),IgG Recycle IC50 [2],EC50 (read off the curve) [4],EC50 (read off the curve) (human FCGRT [5]),IC50 (human FCGRT [6]),EC50 [14],EC50 (read off the curve) (human FCGRT [15]),binding result (human B2M [3]),binding result [13],other results
"ZLP198 (antibody, V domains shown, Full-length chimeric antibody with human IgG1 or IgG4 heavy constant and human kappa or lambda light constant domain) VH: EVKLMESGPDLVKPSQSLSLTCTVTGYSITSGYSWHWIRHFPGKKLEWMGYIHNSGSTNYNPSLKSRISISRETSKNQFFLQLNSVTTEDTATYYCAREGYGGYWYFDVWGAGTSVTVSS VL: DIVLTQSPAIMSASPGEKVTMTCSASSSVSYMYWYQQKPGSSPKPWIYGTSNLASGVPVRFSGSGSGTSYSLTISRMEAEDAATYYCQQRSSYPYTFGGGTKLEIK",~10 nM,,~6 nM,~20 nM,,,,no binding (tested: about 700 nM (Log[Ab] about 2.8)),,
"ZLP1-3-2 (antibody, V domains shown, also called humanized version of ZLP193) VH: QVQLQESGPGLVKPSETLSLTCAVSGYSFTSGYSWHWIRQPPGKGLEWIGYIHDSGGTNYNPSLKSRVTISRDTSKNQFSLKLSSVTAADTAVYYCAREENYRYFDVWGQGTLVTVSS VL: EIVLTQSPATLSLSPGERATLSCSASSSVSYMHWFQQKPGQSPRLWIYSTSNLASGIPARFSGSGSGTDYTLTISSLEPEDFAVYYCQQRSSYPPTFGQGTKVEIK",,,,,,,,,,IC50 (human FCGRT [7]): 6.16 nM; EC50 [8]: 2.95 nM; IgG Recycle IC50 [9]: 4.04 nM; EC50 [10]: 3.12 nM; EC50 (human FCGRT [11]): 1.5 nM; binding result (human B2M [12]): no binding (tested: about 700 nM (Log[Ab] about 2.8))
"ZLP22 (antibody, V domains shown, Full-length chimeric antibody; human kappa or lambda light constant domain) VH: EVKLVESGAELARPGASVKMSCKASGYTFTSYAMHWVKQRPGQGLEWIGYINPSSGYTNYNQKFKDKATLTADKSSSTAYMQLSSLTSEDSAVYYCARKGLRYAVDYWGQGTSVTVSS VL: DIVMTQSPSSLSVSAGEKVTMSCKSSQSLLNSGNQKNYLAWYQQKPGQPPKLLIYGASTRESGVPDRFTGSGSGTDYTLTISSVQAEDLALYYCQQHYSTPYTFGGGTKLEIK",~20 nM,5.01 nM,~0.8 nM,~7 nM,,2.39 nM,,no binding (tested: about 700 nM (Log[Ab] about 2.8)),no binding (tested: about 700 nM (Log[Ab] about 2.8)),IC50 (read off the curve) (human FCGRT [1]): ~30 nM
"ZLP193 (antibody, V domains shown, Full-length chimeric antibody: mouse variable domains with human IgG1 or IgG4 heavy constant domain and human kappa or lambda light constant domain; also called chimeric anti-FcRn antibody ZLP193) VH: EVQLQESGPDLVKPSQSLSLTCTVTGYSFTSGYSWHWIRQFPGNRLEWMGYIHDSGGTNYNPSLKSRISITRDTSKNQFFLQLNSVTTEDTATYYCAREENYRYFDVWGAGTTVTVSS VL: DIQMMQSPAIMSASPGEKVTITCSASSSVSYMHWFQQKPGTSPKLWIYSTSNLASGVPARFSGSGSGTSYSLTISRMEAEDAATYYCQQRSSYPPTFGDGTRLEIK",~9 nM,10.1 nM,~0.3 nM,~1 nM,8.7 nM,0.439 nM,,no binding (tested: about 700 nM (Log[Ab] about 2.8)),no binding (tested: about 700 nM (Log[Ab] about 2.8)),
"ZLP44 (antibody, V domains shown, Full-length chimeric antibody; human kappa or lambda light constant domain) VH: EVQLQQSGPELVKPGASVKVSCKASGYIFTSYNMYWMKQSHGKSLEWIGYIDPYNGGTRYNQKFKGKATLTVDKSSSTAYMHLNSLTSEDSAVYYCAVDGYNGAMDYWGQGTSVTVSS VL: QIVLTQSPASLAVSLGQRATISCRASESVDSYGNSFMHWYQQKPGQPPKLLIYRASNLESGIPARFSGSGSRTDFTLTINPVEADDVATYYCQQSNEDPYTFGGGTKLEIK",,2.5 nM,~0.1 nM,,12.3 nM,0.673 nM,~0.1 nM,no binding (tested: about 700 nM (Log[Ab] about 2.8)),no binding (tested: about 700 nM (Log[Ab] about 2.8)),
"ZLP42 (antibody, V domains shown, Full-length chimeric antibody) VH: QVQLQQPGAELVKPGASVKLSCTASGFNIKDTYMYWVKQRPEQGLEWIGRIDPANGITKFDPKFQDKATVTADTFSNIAYLHLSSLTSEDTAVYYCTTTAVMATEAMDRWGQGTSVTVSS VL: QIVLTQSPASLAVSLGQRATISCRASESVDSYGNSFMHWYQQKPGQPPKLLIYRASNLESGIPARFSGSGSRTDFTLTINPVEADDVATYYCQQSNEDPYTFGGGTKLEIK",,,,,10.9 nM,0.981 nM,~0.2 nM,no binding (tested: about 700 nM (Log[Ab] about 2.8)),no binding (tested: about 700 nM (Log[Ab] about 2.8)),

# Now from value to molecule, other results behind:
EC50 (read off the curve) (musculus FcRn-alpha),IgG Recycle IC50 [2],EC50 (read off the curve) [4],EC50 (read off the curve) (human FCGRT [5]),IC50 (human FCGRT [6]),EC50 [14],EC50 (read off the curve) (human FCGRT [15]),Molecule,binding result (human B2M [3]),binding result [13],other results
30 nM,,,,,,,"Human IgG (Jackson ImmunoResearch, cat #009-000-003) (antibody)",,,
~30 nM,3.24 nM,~7 nM,~20 nM,,,,"ZLP17 (antibody, V domains shown, Full-length chimeric antibody with human IgG1 or IgG4 heavy constant and human kappa or lambda light constant domain) VH: QIQLLQSGAELARPGASVKMSCKASGYTFTSYTMHWVKQRPGQGLEWIGYINPSSGYTNYNQKFKDKATLTADKSSSTAYMQLSSLTSEGSAVYYCARSGLRRVLDYWGQGTSVTVSS VL: ENVLTQSPAILSASPGEKVTMTCSASSSVSYMYWYQQKPGSSPRLLIYDTSNLASGVPVRFSGSGSGTSYSLTISRMEAEDAATYYCQQWSSYPRTFGGGTKLEIK",no binding (tested: about 700 nM (Log[Ab] about 2.8)),,IC50 (read off the curve) (human FCGRT [1]): ~20 nM
,,,,8.88 nM,,,"ZLP57 (antibody, V domains shown, Full-length chimeric antibody with human IgG1 or IgG4 heavy constant and human kappa or lambda light constant domain) VH: QVQLKESGPDLVKPSQSLSLTCTVTGYSITSGYSWHWIRQFPGNKLEWMTYIHSSGSTNYNPSLKSRISITRDTSKNQFFLQLKSVTTEDTATYYCAREVYGNYYWYFDVWGAGTTVTVSS VL: DIVMTQSPAIMSASLGEEITLTCSASSSVSYMHWYQQKSGTSPKLLIYSTSNLASGVPARFSGSGSGTSYSLTISRMEAEDAATYYCQQRSSYPYTFGGGTKLEIK",no binding (tested: about 700 nM (Log[Ab] about 2.8)),,
,10.7 nM,~0.08 nM,,12.5 nM,0.212 nM,~0.3 nM,"ZLP64 (antibody, V domains shown, Full-length chimeric antibody; human kappa or lambda light constant domain) VH: QIQLLQSGPELVKPGASVKVSCKASGYIFTSYNMYWMKQSHGKSLEWIGYIDPYNGGTNYNQKFKGKATLTVDKSSSTAYMHLNSLTSEDSAVYYCAVDGYNGAMDYWGQGTSVTVSS VL: DIVLTQSPASLTVSLGQRATISCRASESVDRYGNSFMHWYQQKPGQPPKLLIYRASNLESGVPARFSGSGSRTDFTLTINPVEADDVASYYCQQSNEDPLTFGAGTKLELK",no binding (tested: about 700 nM (Log[Ab] about 2.8)),no binding (tested: about 700 nM (Log[Ab] about 2.8)),
